Test results reported in paper PMC12691606.

Biological target: RGNNV capsid protein (CP) of the virus (red-spotted grouper nervous necrosis virus (RGNNV))

B1: His-EcCXCR4b recombinant protein (pET-32a-EcCXCR4b) (receptor)
chain: MSYYEHIVFDYDLNDTGSGSGSGDMGVDLQELCDMEHVITDELQQVFLPVVYALIFILGITGNGLVVIVLGCQRRSKCSLTDRYRLHLSAADLLFVLALPFWAVDAALADWRFGEVTCVGVNVIYTVNLYGSVLILAFISLDRYLAVVRATDTNTGELRQLLAHKLVYVGAWLPAGLLAVPDLIYARTQEGGEGATLCQRFYPADNGPIWVAVFHLQLVLVGLVIPGLVLLVCYCVIVTRLTRGPLGGQRQKRRAVRTTIALVLCFFVCWLPYGAGISVDALLRLEVLPRSCRLEAILGVWLAVAEPMAFAHCCLNPLLYAFLGAGFKSSARRALTLSRASSLKILPRRRPGASTTTESESSSLHSS
For B1, the survival rate of groupers over 14 days after injection of RGNNV pre-incubated with His-EcCXCR4b protein (6× His control: 23.3%) was 73.3%.
